From PMC5300761, “Characterizing the Coding Region Determinant-Binding Protein (CRD-BP)-Microphthalmia-associated Transcription Factor (MITF) mRNA interaction”

Assays:
CRD-BP WT [1] = biological target: T1, CRD-BP WT (mouse, UniProt O88477 1-577); assay: fluorescence polarization; 10 nM RNA, 0-1000 nM protein; EMSA as in refs 21,22 (buffer not given; competitor preincubation 35 C); FP: binding buffer stock 10 mM Tris-HCl pH 7.4, 2.5 mM EDTA, 5% glycerol, 0.002% Triton X-100, 37 C 30 min; details: protein: recombinant; (pET28b(+), Ni-NTA); label: 3' 6-FAM
CRD-BP WT [2] = biological target: T1, CRD-BP WT; assay: fluorescence polarization; 10 nM oligo, 0-1000 nM protein; EMSA as in refs 21,22 (buffer not given; competitor preincubation 35 C); FP: binding buffer stock 10 mM Tris-HCl pH 7.4, 2.5 mM EDTA, 5% glycerol, 0.002% Triton X-100, 37 C 30 min; details: protein: recombinant; (pET28b(+), Ni-NTA); label: 3' 6-FAM

T1 sequence (O88477 whole entry): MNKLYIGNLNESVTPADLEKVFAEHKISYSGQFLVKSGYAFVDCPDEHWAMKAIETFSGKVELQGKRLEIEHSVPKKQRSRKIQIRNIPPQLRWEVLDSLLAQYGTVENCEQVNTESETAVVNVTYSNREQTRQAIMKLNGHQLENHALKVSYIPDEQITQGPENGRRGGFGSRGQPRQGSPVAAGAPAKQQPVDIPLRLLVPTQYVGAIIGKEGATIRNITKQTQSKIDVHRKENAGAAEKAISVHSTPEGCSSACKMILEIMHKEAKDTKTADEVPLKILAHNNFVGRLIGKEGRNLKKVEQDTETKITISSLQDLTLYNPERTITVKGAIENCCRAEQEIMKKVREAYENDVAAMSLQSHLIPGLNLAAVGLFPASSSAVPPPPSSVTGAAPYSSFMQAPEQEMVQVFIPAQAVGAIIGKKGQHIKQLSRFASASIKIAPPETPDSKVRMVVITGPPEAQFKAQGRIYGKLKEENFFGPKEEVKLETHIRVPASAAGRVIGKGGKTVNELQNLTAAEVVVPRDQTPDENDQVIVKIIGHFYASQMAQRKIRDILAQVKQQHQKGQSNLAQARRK

B1: FL-CD44 RNA (ssRNA)
RNA: AAAUUAGGGCCCAAUUAAUAAUCAGCAAGAAUUUGAUCG
CRD-BP WT [1]
  binding result: binds

B2: MHO-1_FL (ssDNA)
DNA: TAAAAATCTCAAATCAAGTTTC
CRD-BP WT [2]
  binding result: no binding

B3: MHO-7_FL (ssDNA)
DNA: ATTCAGTTCACAGATACTGCAC
CRD-BP WT [2]
  binding result: no binding
